Reference: the supplement of paper PMC9428881
± gives the standard error.

Test: background-corrected fluorescence of 3'-dye-labeled ssDNA relative to brightest sequence (3'-GCGCG) (fraction); higher = brighter dye fluorescence (less quenching)
Procedure: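 Single-stranded DNA is synthesized in situ on glass microarrays by 5'->3' photolithographic synthesis, with a Cy3 or Cy5 phosphoramidite coupled at the 3' end next to all 1024 permuted pentamers P1-P5. The construct is 5'-T5-(ACGT minus P5..P1 trinucleotides)-T15-P5P4P3P2P1-dye-3'; the dye is a 3' terminal modification, not part of the sequence. Arrays were scanned at 532 nm (Cy3) or 635 nm (Cy5), background from unlabeled oligos was subtracted, and values are averaged over 10 replicate features per array and at least 3 independent syntheses.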

Row | Sequence | background-corrected fluorescence (dye: Cy3 (3' terminal)) | background-corrected fluorescence (dye: Cy5 (3' terminal))
1 | TTTTTTGATGCTCAGCATGCTTTTTTTTTTTTTTTCAGTA [ATGAC] | 0.609 ± 0.021 | 0.461 ± 0.022
2 | TTTTTTGATGAGCATGAGCATTTTTTTTTTTTTTTCCTCT [TCTCC] | 0.431 ± 0.012 | 0.312 ± 0.026
3 | TTTTTGCATGATGATGATGATTTTTTTTTTTTTTTTCCCC [CCCCT] | 0.33 ± 0.022 | 0.243 ± 0.015
4 | TTTTTTCAGCAGCATGATCATTTTTTTTTTTTTTTGTTCG [GCTTG] | 0.551 ± 0.0098 | 0.371 ± 0.032
5 | TTTTTTGCTGCTCATCATGATTTTTTTTTTTTTTTAAGGC [CGGAA] | 0.6269 ± 0.0056 | 0.492 ± 0.038
6 | TTTTTTCATGATCAGCAGCATTTTTTTTTTTTTTTGCGTT | 0.571 ± 0.032 | 0.422 ± 0.024
7 | TTTTTTGATCATGATCATGCTTTTTTTTTTTTTTTCGCGA [AGCGC] | 0.823 ± 0.027 | 0.792 ± 0.034
8 | TTTTTGCATCATGCGCATGATTTTTTTTTTTTTTTTGATC [CTAGT] | 0.442 ± 0.024 | 0.335 ± 0.028
9 | TTTTTTGATGATGATGATGATTTTTTTTTTTTTTTCCCCC | 0.369 ± 0.018 | 0.251 ± 0.018
10 | TTTTTTGATGATCAGCATGCTTTTTTTTTTTTTTTCCGTA [ATGCC] | 0.546 ± 0.025 | 0.436 ± 0.028
11 | TTTTTTGCGCATCATCAGCATTTTTTTTTTTTTTTATGGT [TGGTA] | 0.649 ± 0.027 | 0.561 ± 0.028
12 | TTTTTTGATGCTCAGCAGCATTTTTTTTTTTTTTTCAGTT [TTGAC] | 0.598 ± 0.018 | 0.434 ± 0.015
13 | TTTTTTCATCATCATGCTGCTTTTTTTTTTTTTTTGGGAA [AAGGG] | 0.649 ± 0.032 | 0.596 ± 0.068
14 | TTTTTGCATGATGCGCATGCTTTTTTTTTTTTTTTTCATA [ATACT] | 0.518 ± 0.019 | 0.396 ± 0.024
15 | TTTTTTCATGATGAGCATGCTTTTTTTTTTTTTTTGCCTA [ATCCG] | 0.493 ± 0.016 | 0.366 ± 0.039
16 | TTTTTGCAGCATGCGCATGCTTTTTTTTTTTTTTTTTATA [ATATT] | 0.538 ± 0.038 | 0.4 ± 0.028
17 | TTTTTTGCTCATCATGCTGCTTTTTTTTTTTTTTTAGGAA [AAGGA] | 0.648 ± 0.0081 | 0.559 ± 0.021
18 | TTTTTGCATCATCATCATCATTTTTTTTTTTTTTTTGGGG [GGGGT] | 0.66 ± 0.023 | 0.613 ± 0.042
19 | TTTTTTGCGCATCATCATGATTTTTTTTTTTTTTTATGGC [CGGTA] | 0.545 ± 0.043 | 0.445 ± 0.026
20 | TTTTTGCATGATGATCATGCTTTTTTTTTTTTTTTTCCGA [AGCCT] | 0.581 ± 0.026 | 0.552 ± 0.031
21 | TTTTTTGATCATGATGCTCATTTTTTTTTTTTTTTCGCAG [GACGC] | 0.595 ± 0.025 | 0.446 ± 0.029
22 | TTTTTTCATGATGCTGCGCATTTTTTTTTTTTTTTGCAAT [TAACG] | 0.53 ± 0.018 | 0.406 ± 0.027

Row | Sequence | background-corrected fluorescence (dye: Cy3 (3' terminal)) | background-corrected fluorescence (dye: Cy5 (3' terminal))
23 | TTTTTTGCTGCTGAGCATCATTTTTTTTTTTTTTTAACTG [GTCAA] | 0.547 ± 0.024 | 0.381 ± 0.029
24 | TTTTTTGCGCATCAGCATCATTTTTTTTTTTTTTTATGTG [GTGTA] | 0.607 ± 0.043 | 0.452 ± 0.034
25 | TTTTTTGAGCATGATGAGCATTTTTTTTTTTTTTTCTCCT [TCCTC] | 0.41 ± 0.018 | 0.33 ± 0.032
26 | TTTTTGCATGATCATGCTCATTTTTTTTTTTTTTTTCGAG [GAGCT] | 0.616 ± 0.029 | 0.478 ± 0.035
27 | TTTTTTCATGAGCATGCGCATTTTTTTTTTTTTTTGCTAT [TATCG] | 0.52 ± 0.019 | 0.376 ± 0.035
28 | TTTTTGCAGCATGATCATGCTTTTTTTTTTTTTTTTTCGA [AGCTT] | 0.645 ± 0.025 | 0.533 ± 0.067
29 | TTTTTTCATGCTGCTGCGCATTTTTTTTTTTTTTTGAAAT [TAAAG] | 0.574 ± 0.015 | 0.419 ± 0.025
30 | TTTTTTGCTGATGCTGCTCATTTTTTTTTTTTTTTACAAG [GAACA] | 0.53 ± 0.015 | 0.425 ± 0.021
31 | TTTTTTCATCATGAGCATGATTTTTTTTTTTTTTTGGCTC [CTCGG] | 0.425 ± 0.028 | 0.337 ± 0.05
32 | TTTTTTGCTGCTCAGCAGCATTTTTTTTTTTTTTTAAGTT [TTGAA] | 0.609 ± 0.021 | 0.433 ± 0.024
33 | TTTTTTGCTGATGCTGCTGCTTTTTTTTTTTTTTTACAAA [AAACA] | 0.581 ± 0.022 | 0.499 ± 0.064
34 | TTTTTTGATGCTGATGCTGCTTTTTTTTTTTTTTTCACAA [AACAC] | 0.562 ± 0.022 | 0.411 ± 0.021
35 | TTTTTTGATGCTGCGCATGCTTTTTTTTTTTTTTTCAATA [ATAAC] | 0.574 ± 0.023 | 0.422 ± 0.042
36 | TTTTTGCATGCTCATGATCATTTTTTTTTTTTTTTTAGCG [GCGAT] | 0.658 ± 0.008 | 0.494 ± 0.055
37 | TTTTTGCATGCTGCTCATGCTTTTTTTTTTTTTTTTAAGA [AGAAT] | 0.649 ± 0.011 | 0.589 ± 0.024
38 | TTTTTGCAGCAGCAGCATGATTTTTTTTTTTTTTTTTTTC [CTTTT] | 0.373 ± 0.032 | 0.257 ± 0.015
39 | TTTTTGCATGATGCTGATGATTTTTTTTTTTTTTTTCACC [CCACT] | 0.382 ± 0.011 | 0.265 ± 0.016
40 | TTTTTGCAGCATGATGCTGATTTTTTTTTTTTTTTTTCAC [CACTT] | 0.385 ± 0.01 | 0.289 ± 0.016
41 | TTTTTTGCGCAGCATGATGATTTTTTTTTTTTTTTATTCC [CCTTA] | 0.404 ± 0.016 | 0.272 ± 0.02
42 | TTTTTTGATGCTCATGATGCTTTTTTTTTTTTTTTCAGCA [ACGAC] | 0.514 ± 0.019 | 0.448 ± 0.027
43 | TTTTTGCATCATGATGCTGATTTTTTTTTTTTTTTTGCAC [CACGT] | 0.415 ± 0.035 | 0.321 ± 0.028
44 | TTTTTTGCTGCTCATGATCATTTTTTTTTTTTTTTAAGCG [GCGAA] | 0.632 ± 0.033 | 0.513 ± 0.033

Row | Sequence | background-corrected fluorescence (dye: Cy3 (3' terminal)) | background-corrected fluorescence (dye: Cy5 (3' terminal))
45 | TTTTTTGCTGCGCATGCGCATTTTTTTTTTTTTTTAATAT [TATAA] | 0.54 ± 0.022 | 0.413 ± 0.036
46 | TTTTTTCAGCATGATCATGATTTTTTTTTTTTTTTGTCGC [CGCTG] | 0.556 ± 0.034 | 0.444 ± 0.032
47 | TTTTTTGATGAGCATCATGCTTTTTTTTTTTTTTTCCTGA [AGTCC] | 0.592 ± 0.034 | 0.499 ± 0.086
48 | TTTTTTCATGATGATCATCATTTTTTTTTTTTTTTGCCGG [GGCCG] | 0.665 ± 0.025 | 0.564 ± 0.072
49 | TTTTTTCATGATGAGCAGCATTTTTTTTTTTTTTTGCCTT [TTCCG] | 0.489 ± 0.031 | 0.367 ± 0.035
50 | TTTTTTGATCATGCTGCGCATTTTTTTTTTTTTTTCGAAT [TAAGC] | 0.599 ± 0.04 | 0.402 ± 0.026
51 | TTTTTGCAGCATCAGCATGATTTTTTTTTTTTTTTTTGTC [CTGTT] | 0.407 ± 0.013 | 0.345 ± 0.024
52 | TTTTTTGATGATGCTGCTGCTTTTTTTTTTTTTTTCCAAA [AAACC] | 0.559 ± 0.025 | 0.445 ± 0.051
53 | TTTTTTGCTGATCATGATGCTTTTTTTTTTTTTTTACGCA | 0.525 ± 0.032 | 0.445 ± 0.028
54 | TTTTTTCATGCTGCGCATGATTTTTTTTTTTTTTTGAATC [CTAAG] | 0.433 ± 0.031 | 0.311 ± 0.025
55 | TTTTTTCATCATGATGCTCATTTTTTTTTTTTTTTGGCAG [GACGG] | 0.527 ± 0.028 | 0.426 ± 0.017
56 | TTTTTTGATGATCATGAGCATTTTTTTTTTTTTTTCCGCT [TCGCC] | 0.579 ± 0.035 | 0.428 ± 0.034
57 | TTTTTTGCTCAGCATCATCATTTTTTTTTTTTTTTAGTGG [GGTGA] | 0.625 ± 0.034 | 0.546 ± 0.076
58 | TTTTTTCATGCTCATCATGATTTTTTTTTTTTTTTGAGGC [CGGAG] | 0.585 ± 0.015 | 0.465 ± 0.033
59 | TTTTTTGATCAGCAGCATGCTTTTTTTTTTTTTTTCGTTA [ATTGC] | 0.561 ± 0.012 | 0.398 ± 0.052
60 | TTTTTGCATGCGCATGATGATTTTTTTTTTTTTTTTATCC [CCTAT] | 0.384 ± 0.024 | 0.285 ± 0.019
61 | TTTTTGCATGATGATCATGATTTTTTTTTTTTTTTTCCGC [CGCCT] | 0.504 ± 0.022 | 0.412 ± 0.025
62 | TTTTTTCATCATCAGCATCATTTTTTTTTTTTTTTGGGTG [GTGGG] | 0.627 ± 0.025 | 0.428 ± 0.024
63 | TTTTTTCAGCAGCATGCTGATTTTTTTTTTTTTTTGTTAC [CATTG] | 0.447 ± 0.024 | 0.338 ± 0.055
64 | TTTTTTGCTGCGCATGATCATTTTTTTTTTTTTTTAATCG [GCTAA] | 0.504 ± 0.0074 | 0.399 ± 0.026
65 | TTTTTTGCTGATCATCAGCATTTTTTTTTTTTTTTACGGT [TGGCA] | 0.664 ± 0.018 | 0.565 ± 0.045
